Target: Recombinant human CD8ab protein (extracellular domains of CD8a and CD8b with leucine zippers and tags) (human) (UniProt P01732)
Assay: ELISA: antigen coated on the plate, antibody titrated, anti-IgG (Fc)-HRP and TMB, A450

Recombinant human CD8ab protein (extracellular domains of CD8a and CD8b with leucine zippers and tags) (human), sequence (P01732 22-182, chain 1 of 2): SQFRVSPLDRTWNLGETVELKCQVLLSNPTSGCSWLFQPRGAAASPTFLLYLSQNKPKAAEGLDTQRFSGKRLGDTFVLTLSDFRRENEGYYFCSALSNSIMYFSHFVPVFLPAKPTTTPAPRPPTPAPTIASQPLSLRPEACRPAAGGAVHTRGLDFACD
Recombinant human CD8ab protein (extracellular domains of CD8a and CD8b with leucine zippers and tags) (human), sequence (P10966 22-170, chain 2 of 2, further chain): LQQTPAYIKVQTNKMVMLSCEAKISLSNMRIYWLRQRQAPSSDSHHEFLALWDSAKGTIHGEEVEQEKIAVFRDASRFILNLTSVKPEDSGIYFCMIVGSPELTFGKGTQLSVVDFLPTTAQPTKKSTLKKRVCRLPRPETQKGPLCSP

EC50 (read off the curve): 0.2 nM
B1: xhCD8a1 (clone OKT8, Invitrogen) (antibody, from another filing, V domains shown)
VH: EVQLQQSGAELVKPGASVKLSCTASGFNIKDTYIHFVRQRPEQGLEWIGRIDPANDNTLYASKFQGKATITADTSSNTAYMHLCSLTSGDTAVYYCGRGYGYYVFDHWGQGTTLTVSS
VL: DVQINQSPSFLAASPGETITINCRTSRSISQYLAWYQEKPGKTNKLLIYSGSTLQSGIPSRFSGSGSGTDFTLTISGLEPEDFAMYYCQQHNENPLTFGAGTKLELK
